Reference: article PMC7801617 (2021)
No end group written: not given here.

T1: talin-1 R7–R8 fragment, wildtype (residues 1355–1652) (mouse, UniProt P26039 1355-1652)
T1 chain: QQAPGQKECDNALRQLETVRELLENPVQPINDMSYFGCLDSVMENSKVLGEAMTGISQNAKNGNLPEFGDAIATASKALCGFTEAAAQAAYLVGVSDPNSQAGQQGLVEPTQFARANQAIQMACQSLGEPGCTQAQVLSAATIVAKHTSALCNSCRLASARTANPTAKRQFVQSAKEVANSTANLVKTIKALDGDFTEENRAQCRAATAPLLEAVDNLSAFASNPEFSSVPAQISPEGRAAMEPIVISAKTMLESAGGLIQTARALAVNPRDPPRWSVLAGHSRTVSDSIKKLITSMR


Key:
Experiment in all cases: FP
[1] = molecular target: talin-1 R7–R8 fragment (residues 1355–1652) with mutation Y1389C (mouse, UniProt P26039 1355-1652, Y1389C)
[2] = molecular target: T1, talin-1 R7–R8 fragment, wildtype …
[3] = molecular target: talin-1 R7–R8 fragment (residues 1355–1652) with mutation R1368W (mouse, UniProt P26039 1355-1652, R1368W)
Chain of talin-1 R7–R8 fragment (residues 1355–1652) with mutation R1368W (P26039 1355-1652 R1368W): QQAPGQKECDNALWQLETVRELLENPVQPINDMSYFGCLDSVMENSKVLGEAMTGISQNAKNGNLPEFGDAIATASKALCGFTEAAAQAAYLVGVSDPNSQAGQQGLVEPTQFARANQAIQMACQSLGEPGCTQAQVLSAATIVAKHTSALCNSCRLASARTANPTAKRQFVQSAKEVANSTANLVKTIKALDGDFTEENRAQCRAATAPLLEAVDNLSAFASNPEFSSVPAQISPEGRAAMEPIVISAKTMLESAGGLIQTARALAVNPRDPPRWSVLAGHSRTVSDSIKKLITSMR

Chain of talin-1 R7–R8 fragment (residues 1355–1652) with mutation Y1389C (P26039 1355-1652 Y1389C): as the sequence (P26039 1355-1652 R1368W) above, with W14R, Y35C counted along it

Kd [1] [nM]	Kd [2] [nM]	Kd [3] [nM]	Binder
3600	3600	3300	SEDIDQMFSTLLGEMDLLTQSLGVDTC (also: BODIPY or Fluorescein dye coupled via C-terminal Cys) [RIAM (4–30) peptide]
350	350	390	PYFVETPYGFQLDLDFVKYVDDIQKGNTIKKLNIQKRRKC (BODIPY or Fluorescein dye coupled via the C-terminal cysteine residue) [KANK1 (30–68) peptide]
